T1: truncated recombinant rat factor H protein SCR1-7
T1 chain: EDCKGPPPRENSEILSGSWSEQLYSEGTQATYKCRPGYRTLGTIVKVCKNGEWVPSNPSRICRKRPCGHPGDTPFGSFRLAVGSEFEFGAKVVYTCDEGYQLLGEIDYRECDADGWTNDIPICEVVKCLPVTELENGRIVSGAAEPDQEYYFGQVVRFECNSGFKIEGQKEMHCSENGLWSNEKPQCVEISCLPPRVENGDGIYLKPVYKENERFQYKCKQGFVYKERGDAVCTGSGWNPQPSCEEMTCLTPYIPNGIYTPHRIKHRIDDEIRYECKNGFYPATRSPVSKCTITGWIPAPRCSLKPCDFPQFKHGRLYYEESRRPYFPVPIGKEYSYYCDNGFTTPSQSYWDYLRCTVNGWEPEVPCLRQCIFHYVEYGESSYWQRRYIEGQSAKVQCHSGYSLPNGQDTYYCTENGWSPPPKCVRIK

T2: recombinant human FHp43, P08603
T2 chain: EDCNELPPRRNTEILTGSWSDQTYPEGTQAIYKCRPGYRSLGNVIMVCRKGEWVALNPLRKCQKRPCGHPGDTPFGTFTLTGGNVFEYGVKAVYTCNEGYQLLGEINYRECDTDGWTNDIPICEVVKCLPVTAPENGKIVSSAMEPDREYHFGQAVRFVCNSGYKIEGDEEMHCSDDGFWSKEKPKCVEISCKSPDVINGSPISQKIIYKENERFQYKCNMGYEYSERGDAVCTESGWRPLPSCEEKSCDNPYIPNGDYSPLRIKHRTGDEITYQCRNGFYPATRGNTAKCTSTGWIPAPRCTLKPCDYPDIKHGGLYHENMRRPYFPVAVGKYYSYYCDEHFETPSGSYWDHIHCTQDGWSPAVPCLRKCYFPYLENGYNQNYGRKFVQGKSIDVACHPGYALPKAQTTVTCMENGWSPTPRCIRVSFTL

B1: rat Factor I (protein)
chain: KNTPASGQPQEDLVEQKCLLKNYTHHSCDKVFCQPWQKCIEGTCACKLPYQCPKAGTPVCATNGRGYPTYCHLKSFECLHPEIKFSNNGTCTAEEKFNVSLIYGSTDTEGIVQVKLVDQDEKMFICKNSWSTVEANVACFDLGFPLGVRDIQGRFNIPVNHKINSTECLHVRCQGVETSLAECTFTKKSSKAPHGLAGVVCYTQDADFPTSQSFQCVNGKRIPQEKACDGVNDCGDQSDELCCKGCRGQAFLCKSGVCIPNQRKCNGEVDCITGEDESGCEEDKKNKIHKGLARSDQGGETEIETEETEMLTPDMDTERKRIKSLLPKLSCGVKRNTHIRRKRVVGGKPAEMGDYPWQVAIKDGDRITCGGIYIGGCWILTAAHCVRPSRYRNYQVWTSLLDWLKPNSQLAVQGVSRVVVHEKYNGATYQNDIALVEMKKHPGKKECELINSVPACVPWSPYLFQPNDRCIISGWGREKDNQKVYSLRWGEVDLIGNCSRFYPGRYYEKEMQCAGTSDGSIDACKGDSGGPLVCKDVNNVTYVWGIVSWGENCGKPEFPGVYTRVASYFDWISYYVGRPLVSQYNV
B2: human Factor I (protein)
chain: KVTYTSQEDLVEKKCLAKKYTHLSCDKVFCQPWQRCIEGTCVCKLPYQCPKNGTAVCATNRRSFPTYCQQKSLECLHPGTKFLNNGTCTAEGKFSVSLKHGNTDSEGIVEVKLVDQDKTMFICKSSWSMREANVACLDLGFQQGADTQRRFKLSDLSINSTECLHVHCRGLETSLAECTFTKRRTMGYQDFADVVCYTQKADSPMDDFFQCVNGKYISQMKACDGINDCGDQSDELCCKACQGKGFHCKSGVCIPSQYQCNGEVDCITGEDEVGCAGFASVTQEETEILTADMDAERRRIKSLLPKLSCGVKNRMHIRRKRIVGGKRAQLGDLPWQVAIKDASGITCGGIYIGGCWILTAAHCLRASKTHRYQIWTTVVDWIHPDLKRIVIEYVDRIIFHENYNAGTYQNDIALIEMKKDGNKKDCELPRSIPACVPWSPYLFQPNDTCIVSGWGREKDNERVFSLQWGEVKLISNCSKFYGNRFYEKEMECAGTYDGSIDACKGDSGGPLVCMDANNVTYVWGVVSWGENCGKPEFPGVYTKVANYFDWISYHVGRPFISQYNV

What was measured:
[1] = molecular target: T1, truncated recombinant rat factor H …
[2] = molecular target: T2, recombinant human FHp43, P08603

| Protein | cofactor activity (43 kDa a' cleavage band of the C3b alpha-chain, SDS-PAGE/autoradiography); concentration of rat FHSCR1-7 in the assay [1] | cofactor activity (43 kDa a' cleavage band of the C3b alpha-chain, SDS-PAGE/autoradiography); concentration of FHp43 in the assay [2] |
| --- | --- | --- |
| B1 | exhibit cofactor activity even at low concentrations (10 mM) when incubated with C3b and factor I of the corresponding species |  |
| B2 |  | exhibit cofactor activity even at low concentrations (10 mM) when incubated with C3b and factor I of the corresponding species |
